According to the RNAGym collection of RNA variant scans (doi:10.7554/elife.80360):

B1: CPEB3 Ribozyme (parent)
chain: GGGGGCCACAGCAGAAGCGUUCACGUCGCGGCCCCUGUCAGAUUCUGGUGAAUCUGCGAAUUCUGCUGU

Variants of: B1
Test: self-cleavage, relative activity (ratio to wild type); higher = more cleavage; co-transcriptional

Variant	self-cleavage
GGGGGCCACAGCAGAAGCGUUCACGUCGCGGCCCGUGUCAGAUUCUGGUUAAUCUGCGAAUUCUGCUGU [C35G G50U]	0.443
GGGGGCCACAGCAGAAGCGUUCACGUCGCGGCCCGUGUCAGAUUCUGGUAAAUCUGCGAAUUCUGCUGU [C35G G50A]	0.36
GGGGGCCACAGCAGAAGCGUUCACGUCGCGGCCCAGGUCAGAUUCUGGUGAAUCUGCGAAUUCUGCUGU [C35A U36G]	0.232
GGGGGCCACAGCAGAAGCGUUCACGUCGCGGCCCACGUCAGAUUCUGGUGAAUCUGCGAAUUCUGCUGU [C35A U36C]	0.245
GGGGGCCACAGCAGAAGCGUUCACGUCGCGGCCCGUGUCAGAUUCUUGUGAAUCUGCGAAUUCUGCUGU [C35G G47U]	0.553
GGGGGCCACAGCAGAAGCGUUCACGUCGCGGCCCGUGUCAGAUUCUCGUGAAUCUGCGAAUUCUGCUGU [C35G G47C]	0.634
GGGGGCCACAGCAGAAGCGUUCACGUCGCGGCCCAUGUCAGAUUCUGGUGAAUCUGCGAAUUCUACUGU [C35A G65A]	0.299
GGGGGCCACAGCAGAAGCGUUCACGUCGCGGCCCAUGUCAGAUUCUGGUGAAUCUGCGAAUUCUUCUGU [C35A G65U]	0.184
GGGGGCCACAGCAGAAGCGUUCACGUCGCGGCCCGUGUCAGAUUCUGGUGAAUGUGCGAAUUCUGCUGU [C35G C54G]	0.348
GGGGGCCACAGCAGAAGCGUUCACGUCGCGGCCCAUGUCAGAUUCUGGUGAAUCUGCGAAUGCUGCUGU [C35A U62G]	0.21
GGGGGCCACAGCAGAAGCGUUCACGUCGCGGCCCAUGUCAGAUUCUGGUGAAUCUGCGAAUCCUGCUGU [C35A U62C]	0.242
GGGGGCCACAGCAGAAGCGUUCACGUCGCGGCCCAUGUCAGAUUCUGGUGAAUCUGCGAAUACUGCUGU [C35A U62A]	0.306
GGGGGCCACAGCAGAAGCGUUCACGUCGCGGCCCGUGUCAUAUUCUGGUGAAUCUGCGAAUUCUGCUGU [C35G G41U]	0.341
GGGGGCCACAGCAGAAGCGUUCACGUCGCGGCCCAUGUCAGAUUCUGGUGAAUCUCCGAAUUCUGCUGU [C35A G56C]	0.253
GGGGGCCACAGCAGAAGCGUUCACGUCGCGGCCCAUGUCAGAUUCUGGUGAAUCUACGAAUUCUGCUGU [C35A G56A]	0.218
GGGGGCCACAGCAGAAGCGUUCACGUCGCGGCCCAUGUCAGAUUCUGGUGAAUCUUCGAAUUCUGCUGU [C35A G56U]	0.223
GGGGGCCACAGCAGAAGCGUUCACGUCGCGGCCCGUGUCUGAUUCUGGUGAAUCUGCGAAUUCUGCUGU [C35G A40U]	0.261
GGGGGCCACAGCAGAAGCGUUCACGUCGCGGCCCGUGUCCGAUUCUGGUGAAUCUGCGAAUUCUGCUGU [C35G A40C]	0.225
GGGGGCCACAGCAGAAGCGUUCACGUCGCGGCCCGUGUCGGAUUCUGGUGAAUCUGCGAAUUCUGCUGU [C35G A40G]	0.394
GGGGGCCACAGCAGAAGCGUUCACGUCGCGGCCCGUGUCAGAUUCUGGUGAAUCUGCGAAUUCUGUUGU [C35G C66U]	0.474

Variant	self-cleavage
GGGGGCCACAGCAGAAGCGUUCACGUCGCGGCCCGUGUCAGAUUCUGGUGAAUCUGCGAAUUCUGAUGU [C35G C66A]	0.308
GGGGGCCACAGCAGAAGCGUUCACGUCGCGGCCCAUGUCAGAUUCUGUUGAAUCUGCGAAUUCUGCUGU [C35A G48U]	0.249
GGGGGCCACAGCAGAAGCGUUCACGUCGCGGCCCGUGUCAGAUUCUGGUGAAUCUGCGAUUUCUGCUGU [C35G A60U]	0.217
GGGGGCCACAGCAGAAGCGUUCACGUCGCGGCCCGUGUCAGAUUCUGGUGAAUCUGCGAGUUCUGCUGU [C35G A60G]	0.239
GGGGGCCACAGCAGAAGCGUUCACGUCGCGGCCCGUGUCAGAUUCUGGUGAAUCUGCGACUUCUGCUGU [C35G A60C]	0.348
GGGGGCCACAGCAGAAGCGUUCACGUCGCGGCCCAUGUCAGAUUCUGGUGAAUCUGCGAAGUCUGCUGU [C35A U61G]	0.288
GGGGGCCACAGCAGAAGCGUUCACGUCGCGGCCCAUGUCAGAUUCUGGUGAAUCUGCGAAAUCUGCUGU [C35A U61A]	0.231
GGGGGCCACAGCAGAAGCGUUCACGUCGCGGCCCAUGUCAGAUUCUGGUGAAUCUGCGAAUUCUGCUGA [C35A U69A]	0.358
GGGGGCCACAGCAGAAGCGUUCACGUCGCGGCCCAUGUCAGAUUCUGGUGAAUCUGCGAAUUCUGCUGC [C35A U69C]	0.417
GGGGGCCACAGCAGAAGCGUUCACGUCGCGGCCCGUGUCAGAUUCUGGUGAAUCUGCGAAUUAUGCUGU [C35G C63A]	0.341
GGGGGCCACAGCAGAAGCGUUCACGUCGCGGCCCGUGUCAGUUUCUGGUGAAUCUGCGAAUUCUGCUGU [C35G A42U]	0.308
GGGGGCCACAGCAGAAGCGUUCACGUCGCGGCCCGUGUCAGGUUCUGGUGAAUCUGCGAAUUCUGCUGU [C35G A42G]	0.503
GGGGGCCACAGCAGAAGCGUUCACGUCGCGGCCCGUGUCAGAUUCUGGUGACUCUGCGAAUUCUGCUGU [C35G A52C]	0.433
GGGGGCCACAGCAGAAGCGUUCACGUCGCGGCCCGUGUCAGAUUCUGGUGAUUCUGCGAAUUCUGCUGU [C35G A52U]	0.474
GGGGGCCACAGCAGAAGCGUUCACGUCGCGGCCCAUGUCAGAUUCAGGUGAAUCUGCGAAUUCUGCUGU [C35A U46A]	0.268
GGGGGCCACAGCAGAAGCGUUCACGUCGCGGCCCAUGUCAGAUUCGGGUGAAUCUGCGAAUUCUGCUGU [C35A U46G]	0.356
GGGGGCCACAGCAGAAGCGUUCACGUCGCGGCCCAUGUCAUAUUCUGGUGAAUCUGCGAAUUCUGCUGU [C35A G41U]	0.277
GGGGGCCACAGCAGAAGCGUUCACGUCGCGGCCCAUGUCAGAUUCUGGUGAAUCUGCGAAUUCCGCUGU [C35A U64C]	0.276
GGGGGCCACAGCAGAAGCGUUCACGUCGCGGCCCAUGUCAGAUUCUGGUGAAUCUGCGAAUUCAGCUGU [C35A U64A]	0.205
